According to patent publication US20230227548A1 (published 2023):

B1: GC5B540 (antibody, V domains shown)
VH: QVTLKESGPVLVKPTETLTLTCTVSGFSLTSYNVHWIRQPPGKALEWLAVIWAGGSTNYNSALMSRLTISKDTSKSQVVLTMTNMRAEDTATYYCARDGIRLRFAYWGQGTLVTVSS
VL: EIVMTQSPATLSVSPGERATLSCKASQNVATHVGWYQQKPGQAPRLLIYSASYRYSGIPARFSGSGSGTEFTLTISSLQSEDFAVYYCQQYNRYPYTFGQGTKLEIK
notes: HFA of GC5B396: GC5H240 + GC5L58; IgG4
B2: GCDB45 (bispecific antibody, V domains shown)
VH 1: EVQLVESGGGLVQPGGSLRLSCAASGFTFNTYAMNWVRQAPGKGLEWVARIRSKYNNYATYYAASVKGRFTISRDDSKNSLYLQMNSLKTEDTAVYYCARHGNFGNSYVSWFAYWGQGTLVTVSS
VL 1: QTVVTQEPSLTVSPGGTVTLTCRSSTGAVTTSNYANWVQQKPGQAPRGLIGGTNKRAPGTPARFSGSLLGGKAALTLSGVQPEDEAEYYCALWYSNLWVFGGGTKLTVL
VH 2: EVQLVQSGAEVKKPGESLKISCKGSGYSFTSYWIGWVRQMPGKGLEWMGIIYPGDSDTRYSPSFQGQVTISADKSISTAYLQWSSLKASDTAMYYCARIGFYGRSFRIFDYWGQGTLVTVSS
VL 2: EIVLTQSPATLSLSPGERATLSCRASQSVSSYLAWYQQKPGQAPRLLIYDASNRATGIPARFSGSGSGTDFTLTISSLEPEDFAVYYCQQRSNWPLTFGQGTKVEIK

How the values were obtained:
[1] = target: T1, human GPRC5D (human, UniProt Q9NZD1 1-345); assay: FACS, human GPRC5D cells
T1 construct: on transfected HEK293 or RBL cells, or endogenous on MM1R, H929, OPM2, LP-1, JIM3 and patient plasma cells; also called G-protein coupled receptor family C group 5 member D; hGPRC5D

[2] = target: T1, human GPRC5D; assay: cell-based or functional assay
[3] = target: T2, cyno GPRC5D (cyno, UniProt Q9NZD1 1-343 (human entry)); assay: cell-based or functional assay
T2 chain: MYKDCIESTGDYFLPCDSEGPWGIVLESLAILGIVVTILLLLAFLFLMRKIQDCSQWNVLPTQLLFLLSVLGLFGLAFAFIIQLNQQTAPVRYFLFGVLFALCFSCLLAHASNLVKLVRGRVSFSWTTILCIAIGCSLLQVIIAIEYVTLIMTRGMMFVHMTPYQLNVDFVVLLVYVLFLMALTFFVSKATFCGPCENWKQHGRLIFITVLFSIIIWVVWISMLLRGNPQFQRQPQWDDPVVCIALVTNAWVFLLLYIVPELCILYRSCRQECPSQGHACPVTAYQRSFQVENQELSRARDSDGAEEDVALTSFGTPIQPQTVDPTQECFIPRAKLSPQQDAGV

T1 sequence (Q9NZD1 whole entry): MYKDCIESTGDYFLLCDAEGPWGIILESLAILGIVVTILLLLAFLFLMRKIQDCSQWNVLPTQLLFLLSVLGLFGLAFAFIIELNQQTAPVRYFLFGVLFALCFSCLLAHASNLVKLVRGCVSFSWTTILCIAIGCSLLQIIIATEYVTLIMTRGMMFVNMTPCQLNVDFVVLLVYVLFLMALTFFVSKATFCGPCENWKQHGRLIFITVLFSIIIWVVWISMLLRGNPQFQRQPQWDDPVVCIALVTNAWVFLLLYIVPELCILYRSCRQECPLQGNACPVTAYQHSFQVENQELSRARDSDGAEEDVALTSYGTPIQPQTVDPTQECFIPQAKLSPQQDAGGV

Row | Binder | binding result [1] | T-cell mediated cytotoxicity EC50, H929 (n = 5) [2] [nM] | T-cell mediated cytotoxicity EC50, MM1R (n = 3) [2] [nM] | T cell mediated target cell killing, Cyno GPRC5D EC50 [3] [nM]
1 | B1 | binds |  |  | 
2 | B2 |  | 2.25 | 0.91 | 2.82
